Measurements from patent publication US20220177587A1, “METHODS AND USES OF VARIANT CD80 FUSION PROTEINS AND RELATED CONSTRUCTS” (Alpine Immune Sciences, Inc., priority 2018, published 2022).

Columns and labels:
[1] = target: CD28 (human) (UniProt P10747); test: flow cytometry, Jurkat cells (CD28); MFI over CD80 WT IgV-Fc
[2] = target: human PD-L1 (human) (UniProt Q9NZQ7); test: flow cytometry, CHO/PD-L1 cells; MFI over CD80 WT IgV-Fc
[3] = target: human CTLA-4 (human) (UniProt P16410); test: flow cytometry, CHO cells stably expressing CTLA4
Chain of human CTLA-4 (human) (P16410 36-223): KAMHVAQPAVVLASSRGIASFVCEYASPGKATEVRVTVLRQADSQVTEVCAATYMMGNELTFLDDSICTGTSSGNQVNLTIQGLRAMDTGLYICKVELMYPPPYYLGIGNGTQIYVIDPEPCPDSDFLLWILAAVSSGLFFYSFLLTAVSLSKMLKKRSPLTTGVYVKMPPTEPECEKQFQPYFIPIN

[4] = target: CD28 (human) (UniProt P10747); test: flow cytometry, Jurkat cells (CD28)
[5] = target: human CTLA-4 (human) (UniProt P16410); test: flow cytometry, CHO/CTLA4 cells; MFI over CD80 WT IgV-Fc
[6] = target: human PD-L1 (human) (UniProt Q9NZQ7); test: flow cytometry, CHO cells stably expressing PD-L1
[7] = target: human PD-L1 (human) (UniProt Q9NZQ7)
[8] = target: CD28 (human) (UniProt P10747)
[9] = target: human CTLA-4 (human) (UniProt P16410); test: flow cytometry, CHO cells expressing CTLA4
[10] = target: human PD-L1 (human) (UniProt Q9NZQ7); test: flow cytometry, MFI on PD-L1 over MFI on CD28
[11] = target: human PD-L1 (human) (UniProt Q9NZQ7); test: flow cytometry, CHO cells expressing PD-L1
[12] = target: human PD-L1 (human) (UniProt Q9NZQ7); test: flow cytometry, MFI on CHO/PD-L1 over MFI on Jurkat (CD28)
[13] = target: human PD-L1 (human) (UniProt Q9NZQ7); remark: listed apart in the source
[14] = target: CD28 (human) (UniProt P10747); remark: listed apart in the source

Chain of human PD-L1 (human) (Q9NZQ7 19-290): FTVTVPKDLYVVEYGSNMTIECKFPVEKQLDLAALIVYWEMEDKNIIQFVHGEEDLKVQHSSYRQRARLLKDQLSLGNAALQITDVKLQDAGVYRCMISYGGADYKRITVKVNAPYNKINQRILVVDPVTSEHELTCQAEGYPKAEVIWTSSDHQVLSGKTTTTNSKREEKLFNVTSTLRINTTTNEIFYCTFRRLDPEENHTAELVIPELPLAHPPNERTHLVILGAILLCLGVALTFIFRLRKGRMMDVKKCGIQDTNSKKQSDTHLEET

Row | Binder | Fold change to WT CD80 [1] [fold] | Fold change to WT CD80 [2] [fold] | MFI at 33.3 nM [3] [MFI] | MFI at 33.3 nM [4] [MFI] | Fold change to WT CD80 [5] [fold] | MFI at 33.3 nM [6] [MFI] | IL2-luciferase reporter, fold increase in RLU over WT CD80-IgV-Fc at 5.0 nM [7] [fold] | IL2-luciferase reporter, fold increase in RLU over WT CD80-IgV-Fc at 5.0 nM [8] [fold] | also measured
1 | CD80 E35D/M47V/N48K/V68M/K89N IgV-Fc, EAAAK linker (Fc fusion) VIHVTKEVKEVATLSCGHNVSVEELAQTRIYWQKDKKMVLTMMSGDVKIWPEYKNRTIFDITNNLSIMILALRPSDEGTYECVVLKYENDAFKREHLAEVTLSVKADEAAAK | 47.1 | 491 | 27500 | 2630 | 23 | 22900 | 4.38 | 4.38 | –
2 | CD80 E35D/D46V/M47L/V68M/L85Q/E88D IgV-Fc, EAAAK linker (Fc fusion) VIHVTKEVKEVATLSCGHNVSVEELAQTRIYWQKDKKMVLTMMSGVLNIWPEYKNRTIFDITNNLSIMILALRPSDEGTYECVVQKYDKDAFKREHLAEVTLSVKADEAAAK | 10.1 | 533 | 29000 | 563 | 24.2 | 24800 | 3.75 | 3.75 | –
3 | CD80 E35D/M47V/N48K/V68M/K89N IgV-Fc, (EAAAK)3 linker (Fc fusion) VIHVTKEVKEVATLSCGHNVSVEELAQTRIYWQKDKKMVLTMMSGDVKIWPEYKNRTIFDITNNLSIMILALRPSDEGTYECVVLKYENDAFKREHLAEVTLSVKADEAAAKEAAAKEAAAK | 23 | 525 | 27100 | 1280 | 22.6 | 24500 | 4.52 | 4.52 | –
4 | CD80 E35D/D46V/M47L/V68M/L85Q/E88D IgV-Fc, (EAAAK)3 linker (Fc fusion) VIHVTKEVKEVATLSCGHNVSVEELAQTRIYWQKDKKMVLTMMSGVLNIWPEYKNRTIFDITNNLSIMILALRPSDEGTYECVVQKYDKDAFKREHLAEVTLSVKADEAAAKEAAAKEAAAK | 3.5 | 546 | 32000 | 197 | 26.8 | 25500 | 5.25 | 5.25 | –
5 | CD80 E35D/M47V/N48K/V68M/L85M IgV-Fc (Fc fusion) VIHVTKEVKEVATLSCGHNVSVEELAQTRIYWQKDKKMVLTMMSGDVKIWPEYKNRTIFDITNNLSIMILALRPSDEGTYECVVMKYEKDAFKREHLAEVTLSVKAD | – | – | – | 245 | – | – | – | – | Fold change to WT CD80 [9]: 8.9 fold; MFI at 33.3 nM [9]: 15600 MFI; Ratio of PDL1:CD28 [10]: 31.1; Fold change to WT CD80 [4]: 7.8 fold; Fold change to WT CD80 [11]: 148 fold; MFI at 33.3 nM [11]: 7620 MFI
6 | CD80 IgV-Fc E35D/D46E/M47L/V68M/L85Q/F92L (Fc fusion) VIHVTKEVKEVATLSCGHNVSVEELAQTRIYWQKDKKMVLTMMSGELNIWPEYKNRTIFDITNNLSIMILALRPSDEGTYECVVQKYEKDALKREHLAEVTLSVKAD | – | – | 214 | 15 | – | 13200 | – | – | Fold change to WT CD80 [3]: 0.2 fold; Fold change to WT [4]: 0.4 fold; Ratio of PDL1:CD28 [12]: 863; Fold change to WT [6]: 158 fold
7 | CD80 T13R/Q33R/E35D/M47L/V68M IgV-Fc (Fc fusion) VIHVTKEVKEVARLSCGHNVSVEELAQTRIYWRKDKKMVLTMMSGDLNIWPEYKNRTIFDITNNLSIMILALRPSDEGTYECVVLKYEKDAFKREHLAEVTLSVKAD | – | – | – | 14.1 | – | – | – | – | Fold change to WT CD80 [9]: 11.8 fold; MFI at 33.3 nM [9]: 20700 MFI; Ratio of PDL1:CD28 [10]: 1040; Fold change to WT CD80 [4]: 0.4 fold; Fold change to WT CD80 [11]: 285 fold; MFI at 33.3 nM [11]: 14700 MFI
8 | CD80 H18Y/E35D/M47L/A71G/A91S IgV-Fc (Fc fusion) VIHVTKEVKEVATLSCGYNVSVEELAQTRIYWQKDKKMVLTMMSGDLNIWPEYKNRTIFDITNNLSIVILGLRPSDEGTYECVVLKYEKDSFKREHLAEVTLSVKAD | – | – | – | – | – | – | – | – | IL2-luciferase reporter (RLU), fold increase over WT CD80-IgV-Fc at 5.0 nM [13]: 4.7 fold; IL2-luciferase reporter (RLU), fold increase over WT CD80-IgV-Fc at 5.0 nM [14]: 4.7 fold
9 | CD80 IgV-Fc H18Y/V22A/E35D/T41S/M47V/T62N/A71G/A91G (Fc fusion) VIHVTKEVKEVATLSCGYNVSAEELAQTRIYWQKDKKMVLSMMSGDVNIWPEYKNRTIFDINNNLSIVILGLRPSDEGTYECVVLKYEKDGFKREHLAEVTLSVKAD | – | – | 10300 | 1590 | – | 8460 | – | – | Fold change to WT CD80 [3]: 10 fold; Fold change to WT [4]: 38.5 fold; Ratio of PDL1:CD28 [12]: 5; Fold change to WT [6]: 101 fold
